Drawing on paper PMC5177931, this text covers response for one molecule.

In the experiment the target is T1, Myc-tagged PDC E1, P08559.
T1 chain: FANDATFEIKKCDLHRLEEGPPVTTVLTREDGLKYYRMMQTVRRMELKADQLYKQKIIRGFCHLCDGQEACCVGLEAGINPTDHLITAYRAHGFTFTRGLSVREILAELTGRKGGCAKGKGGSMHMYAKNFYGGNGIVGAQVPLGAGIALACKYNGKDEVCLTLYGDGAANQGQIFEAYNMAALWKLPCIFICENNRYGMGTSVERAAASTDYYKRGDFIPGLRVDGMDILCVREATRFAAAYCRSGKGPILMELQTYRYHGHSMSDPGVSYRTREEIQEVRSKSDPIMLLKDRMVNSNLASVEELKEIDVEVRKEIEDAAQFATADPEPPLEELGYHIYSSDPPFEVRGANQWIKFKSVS
Nature of the experiment: co-immunoprecipitation (anti-Myc IP, western blot for Flag-STAT3), band intensity printed under lanes. Conditions: chain shown with the change; 293T cells, transient transfection; printed intensities relative to EV lane = 1; parent: 9.5. For orientation: A western blot detects proteins with antibodies after separation by electrophoresis.

B1: Flag-STAT3 WT, P40763 K685R; K707R; K709R (protein)
chain: MAQWNQLQQLDTRYLEQLHQLYSDSFPMELRQFLAPWIESQDWAYAASKESHATLVFHNLLGEIDQQYSRFLQESNVLYQHNLRRIKQFLQSRYLEKPMEIARIVARCLWEESRLLQTAATAAQQGGQANHPTAAVVTEKQQMLEQHLQDVRKRVQDLEQKMKVVENLQDDFDFNYKTLKSQGDMQDLNGNNQSVTRQKMQQLEQMLTALDQMRRSIVSELAGLLSAMEYVQKTLTDEELADWKRRQQIACIGGPPNICLDRLENWITSLAESQLQTRQQIKKLEELQQKVSYKGDPIVQHRPMLEERIVELFRNLMKSAFVVERQPCMPMHPDRPLVIKTGVQFTTKVRLLVKFPELNYQLKIKVCIDKDSGDVAALRGSRKFNILGTNTKVMNMEESNNGSLSAEFKHLTLREQRCGNGGRANCDASLIVTEELHLITFETEVYHQGLKIDLETHSLPVVVISNICQMPNAWASILWYNMLTNNPKNVNFFTKPPIGTWDQVAEVLSWQFSSTTKRGLSIEQLTTLAEKLLGPGVNYSGCQITWAKFCKENMAGKGFSFWVWLDNIIDLVKKYILALWNEGYIMGFISKERERAILSTKPPGTFLLRFSESSKEGGVTFTWVEKDISGKTQIQSVEPYTKQQLNNMSFAEIIMGYKIMDATNILVSPLVYLYPDIPKEEAFGRYCRPESQEHPEADPGSAAPYLRTRFICVTPTTCSNTIDLPMSPRTLDSLMQFGNNGEGAEPSAGGQFESLTFDMELTSECATSPM
As for B1, the response came out at 2.4.
